{"source": "paper PMC7956722", "about": "(Molecules, 2021)", "molecules": {"B1": {"name": "LHRH receptor type I (protein)", "chain": "MANSASPEQNQNHCSAINNSIPLMQGNLPTLTLSGKIRVTVTFFLFLLSATFNASFLLKLQKWTQKKEKGKKLSRMKLLLKHLTLANLLETLIVMPLDGMWNITVQWYAGELLCKVLSYLKLFSMYAPAFMMVVISLDRSLAITRPLALKSNSKVGQSMVGLAWILSSVFAGPQLYIFRMIHLADSSGQTKVFSQCVTHCSFSQWWHQAFYNFFTFSCLFIIPLFIMLICNAKIIFTLTRVLHQDPHELQLNQSKNNIPRARLKTLKMTVAFATSFTVCWTPYYVLGIWYWFDPEMLNRLSDPVNHFFFLFAFLNPCFDPLIYGYFSL"}}, "key": {"[1]": {"target": "T1, LHRH receptors (membrane receptors of human bladder cancer cells) (Homo sapiens, UniProt P30968)", "T1 construct": "membrane homogenates of bladder cancer specimens containing 60–150 µg protein were incubated in duplicate; from tissue; host or cells: surgically resected human bladder cancer (transitional cell carcinoma) tissue, crude membrane fractions", "T1 sequence (P30968 1-328)": "B1 chain", "assay": "Ligand competition assay: displacement of [125I][D-Trp6]LHRH by unlabeled peptides", "format": "binding", "conditions": "for displacement of [125I][D-Trp6]LHRH by unrelated peptides: membrane fractions of human bladder cancer specimens, increasing concentrations, mean of duplicate or triplicate determinations", "description": "Analysis of the typical displacement of radiolabeled [D-Trp^6] […] Biochemical parameters essential to establish the identity of specific binding sites were also determined.\nEach point represents mean of duplicate or triplicate determinations.\nThe assay was performed as described earlier. […] At the end of the incubation, 125 µL aliquots of suspension were transferred onto the top of 1 mL of ice-cold binding buffer containing 1.5% BSA in microcentrifuge tubes. The tubes were centrifuged at 12,000× g for 3 min at 4 °C. Supernatants were aspirated and the pellet was counted in a gamma counter. Protein concentration was determined by the method of Bradford using a Bio-Rad protein assay kit (Bio-Rad Laboratories, Hercules, CA, USA). The final binding affinities were expressed as IC50 values and were calculated by using the LIGAND-PC computerized curve-fitting program of Munson and Rodbard."}, "[2]": {"test_system": "bladder carcinogenesis", "set-up": "method as in PMID 8551710", "conditions": "cited from earlier work", "from_the_text": "The effects of the androgen regulation system and LHRH agonist on bladder carcinogenesis have been investigated in animals [10]."}, "[3]": {"test_system": "bladder cancer in nude mice", "conditions": "Szepeshazi et al., cited from earlier work", "text": "(§1) Our findings are in agreement with the results of Bahk et al. (2008). […] However, there is no information about the role of peptide receptors in bladder carcinogenesis. The signaling pathways have the potential to be an important area of bladder cancer research, leading to the development of effective therapeutic approaches."}, "[4]": {"test_system": "various human cancers", "conditions": "trials completed or terminated; cited from earlier work", "text": "as §1"}, "[5]": {"test_system": "LHRH-receptor-positive models of human ovarian, mammary, endometrial, and prostatic cancers", "conditions": "cited from earlier work"}, "[6]": {"test_system": "metastatic bladder cancer", "conditions": "first-line therapy, cisplatin-based chemotherapy; cited from earlier work", "text": "More than 90% of urothelial tumors originate from the urinary bladder, 8% from the renal pelvis, and 2% from the ureter and urethra. Histologically, the majority (around 90%) of bladder cancer is described as the type of TCC and the rest are squamous cell carcinoma, adenocarcinoma, and rarely, small cell carcinoma. Despite advancements in surgical techniques and chemotherapy, the overall survival in metastatic bladder cancer has not improved over the last 20 years. The first-line therapy is cisplatin-based chemotherapy with the response rate of approximately 50% [[4],[31] ..."}, "[7]": {"target": "T2, AN-152 (Homo sapiens, pGlu1, D-Lys6 linked through glutaric acid spacer to doxorubicin, C-terminal amide)", "T2 chain": "QHWSYKLRPG", "assay": "radioligand competition"}, "[8]": {"target": "T3, [D-Lys6]LHRH (Homo sapiens, pGlu1, D-Lys6, C-terminal amide)", "T3 chain": "QHWSYKLRPG", "assay": "radioligand competition"}, "[9]": {"target": "T4, [125I][D-Trp6]LHRH (Homo sapiens, pGlu1, D-Trp6, C-terminal amide, 125I)", "T4 chain": "QHWSYWLRPG", "assay": "radioligand competition (patient 3)"}, "[10]": {"target": "T4, [125I][D-Trp6]LHRH", "assay": "radioligand competition (patient 7)"}, "[11]": {"target": "T4, [125I][D-Trp6]LHRH", "assay": "radioligand competition (patient 8)"}, "[12]": {"target": "T4, [125I][D-Trp6]LHRH", "assay": "radioligand competition (patient 6)"}, "[13]": {"target": "T4, [125I][D-Trp6]LHRH", "assay": "radioligand competition (patient 12)"}, "[14]": {"target": "T4, [125I][D-Trp6]LHRH", "assay": "radioligand competition (patient 18)"}, "[15]": {"target": "T4, [125I][D-Trp6]LHRH", "assay": "radioligand competition (patient 14)"}, "[16]": {"target": "T4, [125I][D-Trp6]LHRH", "assay": "radioligand competition (patient 10)"}, "[17]": {"target": "T4, [125I][D-Trp6]LHRH", "assay": "radioligand competition (patient 19)"}, "[18]": {"target": "T4, [125I][D-Trp6]LHRH", "assay": "radioligand competition (patient 22)"}, "[19]": {"target": "T4, [125I][D-Trp6]LHRH", "assay": "radioligand competition, Scatchard (mean of 10 bladder cancer specimens)"}}, "note": "Like-named read-outs stand apart in the source and are kept apart here. Non-standard residues stand in square brackets, D forms with d. Residues, ends and D or L forms follow the SMILES beside them. dPhe(4-Cl) = N[C@H](Cc1ccc(Cl)cc1)C(=O)O; d2Nal = N[C@H](Cc1ccc2ccccc2c1)C(=O)O; dCit = NC(=O)NCCC[C@@H](N)C(=O)O; d3Pal = N[C@H](Cc1cccnc1)C(=O)O", "data": [{"molecule": "human growth hormone (hGH): unrelated peptide", "values": [{"measurement": "displacement of [125I][D-Trp6]LHRH by unrelated peptides", "setting": "[1]", "value": "did not displace the radioligand"}]}, {"molecule": "CC(C)C(=O)Nc1ccc([N+](=O)[O-])c(C(F)(F)F)c1", "note": "[flutamide]", "values": [{"measurement": "effect on bladder carcinogenesis", "setting": "[2]", "value": "suppressed the LHRH-induced promotion of carcinogenesis"}]}, {"molecule": "somatostatin: unrelated peptide", "values": [{"measurement": "displacement of [125I][D-Trp6]LHRH by unrelated peptides", "setting": "[1]", "value": "did not displace the radioligand"}]}, {"molecule": "epidermal growth factor: unrelated peptide", "values": [{"measurement": "displacement of [125I][D-Trp6]LHRH by unrelated peptides", "setting": "[1]", "value": "did not displace the radioligand"}]}, {"molecule": "vasoactive intestinal peptide (VIP): unrelated peptide", "values": [{"measurement": "displacement of [125I][D-Trp6]LHRH by unrelated peptides", "setting": "[1]", "value": "did not displace the radioligand"}]}, {"molecule": "growth hormone-releasing hormone (GHRH): unrelated peptide", "values": [{"measurement": "displacement of [125I][D-Trp6]LHRH by unrelated peptides", "setting": "[1]", "value": "did not displace the radioligand"}]}, {"molecule": "COc1cccc2c1C(=O)c1c(O)c3c(c(O)c1C2=O)C[C@@](O)(C(=O)COC(=O)CCCC(=O)NCCCC[C@@H](NC(=O)[C@H](Cc1ccc(O)cc1)NC(=O)[C@H](CO)NC(=O)[C@H](Cc1c[nH]c2ccccc12)NC(=O)[C@H](Cc1c[nH]cn1)NC(=O)[C@@H]1CCC(=O)N1)C(=O)N[C@@H](CC(C)C)C(=O)N[C@@H](CCCNC(=N)N)C(=O)N1CCC[C@H]1C(=O)NCC(N)=O)C[C@@H]3O[C@H]1C[C@H](N)[C@H](O)[C@H](C)O1", "note": "[AN-152]", "values": [{"measurement": "binding affinity relative to free carrier [D-Lys6]LHRH (in words)", "setting": "[1]; compared with free peptide carrier [D-Lys6]LHRH, human bladder cancer membranes", "value": "only slightly lower binding affinity to specific LHRH receptors than the free peptide carrier"}, {"measurement": "binding to LHRH receptors (in words)", "setting": "[1]; displacement of [125I][D-Trp6]LHRH, human bladder cancer membranes", "value": "could effectively bind to LHRH receptors at low nanomolar concentration"}, {"measurement": "effect compared with DOX", "setting": "[3]; bladder cancer in nude mice", "value": "greater effects than DOX"}, {"measurement": "growth inhibition of bladder cancer", "setting": "[3]; nude mice", "value": "inhibits powerfully the growth of the bladder cancer in nude mice"}, {"measurement": "toxicity compared with DOX", "setting": "[3]; nude mice", "value": "lesser toxicity"}, {"measurement": "outcome of clinical trials", "setting": "[4]", "value": "some of these studies did not achieve their primary endpoint"}, {"measurement": "inhibition of tumor growth in vivo versus respective radicals", "setting": "[5]; human ovarian, mammary, endometrial, prostatic cancers xenografted into nude mice", "value": "much more effective in vivo than their respective radicals in inhibiting tumor growth"}, {"measurement": "toxicity versus respective radicals", "setting": "[5]; nude mice", "value": "less toxic"}]}, {"molecule": "N.N.[Cl][Pt][Cl]", "note": "[cisplatin]", "values": [{"measurement": "response rate", "setting": "[6]", "value": "approximately 50%"}]}, {"molecule": "CC(C)C[C@H](NC(=O)[C@@H](CCCCN)NC(=O)[C@H](Cc1ccc(O)cc1)NC(=O)[C@H](CO)NC(=O)[C@H](Cc1c[nH]c2ccccc12)NC(=O)[C@H](Cc1cnc[nH]1)NC(=O)[C@@H]1CCC(=O)N1)C(=O)N[C@@H](CCCNC(=N)N)C(=O)N1CCC[C@H]1C(=O)NCC(N)=O", "note": "[[D-Lys^6]LHRH]", "values": [{"measurement": "IC50", "setting": "[1]; read-out: Receptor binding potency (IC50)", "value": 0.98, "unit": "nM"}]}, {"molecule": "CC(=O)N[C@H](Cc1ccc2ccccc2c1)C(=O)N[C@H](Cc1ccc(Cl)cc1)C(=O)N[C@H](Cc1cccnc1)C(=O)N[C@@H](CO)C(=O)N[C@@H](Cc1ccc(O)cc1)C(=O)N[C@H](CCCNC(N)=O)C(=O)N[C@@H](CC(C)C)C(=O)N[C@@H](CCCNC(=N)N)C(=O)N1CCC[C@H]1C(=O)N[C@H](C)C(N)=O", "note": "[Cetrorelix] (Ac-[d2Nal][dPhe(4-Cl)][d3Pal]SY[dCit]LRP[dA]-NH2)", "values": [{"measurement": "IC50", "setting": "[1]", "value": 0.86, "unit": "nM"}]}, {"molecule": "B1", "values": [{"measurement": "IC50", "setting": "[7]", "value": 1.39, "unit": "nM"}, {"measurement": "IC50", "setting": "[8]", "value": 0.98, "unit": "nM"}, {"measurement": "Kd", "setting": "[9]", "value": 5.76, "unit": "nM"}, {"measurement": "Kd", "setting": "[10]", "value": 4.94, "unit": "nM"}, {"measurement": "Kd", "setting": "[11]", "value": 6.26, "unit": "nM"}, {"measurement": "Kd", "setting": "[12]", "value": 6.85, "unit": "nM"}, {"measurement": "Kd", "setting": "[13]", "value": 3.61, "unit": "nM"}, {"measurement": "Kd", "setting": "[14]", "value": 4.38, "unit": "nM"}, {"measurement": "Kd", "setting": "[15]", "value": 4.92, "unit": "nM"}, {"measurement": "Kd", "setting": "[16]", "value": 5.02, "unit": "nM"}, {"measurement": "Kd", "setting": "[17]", "value": 3.83, "unit": "nM"}, {"measurement": "Kd", "setting": "[18]", "value": 4.31, "unit": "nM"}, {"measurement": "Kd", "setting": "[19]", "value": 4.98, "unit": "nM"}]}]}
